From the RNAGym collection of RNA variant scans (doi:10.7554/elife.80360)

B1: HDV Ribozyme (parent)
chain: GGCCGGCAUGGUCCCAGCCUCCUCGCUGGCGCCGGCUGGGCAACAUUCCGAGGGGACCGUCCCCUCGGUAAUGGCGAAUGGGACCCA

Variants of: B1
Test: self-cleavage, relative activity (ratio to wild type); higher = more cleavage; co-transcriptional

Going from C7A G68U to A8U C21A, the self-cleavage falls from 0.623 to 0.

Going from C7U C75A to C7U C75G, the self-cleavage falls from 0.177 to 0.0852.

First: C7U C14U
Second: C7A G52U
The self-cleavage of the first is higher: 0.785 for the first, 0.462 for the second.

Compared with A8C G81A, C7U G11U is higher in self-cleavage: 0.151 for the first, 0.16 for the second.

First: C7U G11A
Second: C7G U60A
The self-cleavage of the first is higher: 0.423 for the first, 0.317 for the second.

Compared with A8G U46G, A8G U46A is higher in self-cleavage: 0.623 for the first, 0.723 for the second.

First: C7A G81C
Second: A8C A16C
The self-cleavage of the first is lower: 0.0536 for the first, 1.07 for the second.

Going from A8U U9G to C7U U65C, the self-cleavage falls from 0.997 to 0.914.

Compared with A8U C84G, C7U G17U is lower in self-cleavage: 0.462 for the first, 0.259 for the second.

Going from C7U G17C to C7U A70C, the self-cleavage rises from 0 to 0.923.

Compared with C7U A70G, C7A U69A is lower in self-cleavage: 0.831 for the first, 0.449 for the second.

Going from C7U C30U to A8C G39U, the self-cleavage falls from 0.483 to 0.381.

Compared with A8C G39A, A8C G39C is lower in self-cleavage: 0.151 for the first, 0.0615 for the second.

Compared with C7G C18U, C7U G53A is higher in self-cleavage: 0.0639 for the first, 0.964 for the second.

First: C7U G53U
Second: C7U G40U
The self-cleavage of the first is higher: 1.09 for the first, 0.821 for the second.

First: A8G C75A
Second: A8G C33A
The self-cleavage of the first is lower: 0.0692 for the first, 0.101 for the second.

Compared with A8G C33U, C7G G34C is lower in self-cleavage: 0.751 for the first, 0.213 for the second.

First: C7U A77C
Second: C7U A77U
The self-cleavage of the first is higher: 0.196 for the first, 0.151 for the second.

Compared with C7U C19A, A8U C86U is higher in self-cleavage: 0.157 for the first, 0.997 for the second.

Going from A8U C86G to A8G U37A, the self-cleavage falls from 0.554 to 0.147.

First: A8G C41U
Second: A8U C13A
The self-cleavage of the first is higher: 0.917 for the first, 0 for the second.

First: A8U C13G
Second: A8G C63U
The self-cleavage of the first is lower: 0 for the first, 1.26 for the second.

Going from C7U A42G to A8C G68C, the self-cleavage rises from 0.415 to 0.604.

First: C7G C85A
Second: C7G G38U
The self-cleavage of the first is higher: 0.302 for the first, 0.0692 for the second.

Going from C7G G38A to A8C U60G, the self-cleavage rises from 0.101 to 0.554.

First: C7G A51G
Second: A8C A87U
The self-cleavage of the first is lower: 0.237 for the first, 0.847 for the second.

Going from A8C A87G to A8G C19G, the self-cleavage falls from 0.674 to 0.0594.

First: A8C C26U
Second: A8G A56C
The self-cleavage of the first is higher: 1.01 for the first, 0.867 for the second.

Compared with A8U G34C, A8U G59U is higher in self-cleavage: 0 for the first, 1.04 for the second.

Compared with A8G G52C, A8G G52A is lower in self-cleavage: 1.26 for the first, 0.719 for the second.

Compared with A8C C44U, C7G C33U is lower in self-cleavage: 0.199 for the first, 0 for the second.

Compared with A8U G17U, A8U G17A is higher in self-cleavage: 0.18 for the first, 0.665 for the second.

First: A8G U27G
Second: C7U G81C
The self-cleavage of the first is higher: 0.831 for the first, 0.383 for the second.

First: A8G U12G
Second: C7U A83U
The self-cleavage of the first is higher: 0.712 for the first, 0.0852 for the second.

First: C7G A8U
Second: C7U G25C
The self-cleavage of the first is higher: 0.104 for the first, 0.0378 for the second.

First: A8U G39C
Second: A8C C21U
The self-cleavage of the first is higher: 0.166 for the first, 0.0594 for the second.

Going from U9A A43U to U9A A43G, the self-cleavage rises from 0.675 to 0.712.

Compared with A8U G40A, A8G A87G is higher in self-cleavage: 0.892 for the first, 0.942 for the second.

Compared with A8G A87C, C7U U47C is lower in self-cleavage: 1.18 for the first, 0.482 for the second.

First: A8U A70U
Second: A8U U65G
The self-cleavage of the first is higher: 0.772 for the first, 0.748 for the second.

Compared with A8U U65A, A8C A56U is higher in self-cleavage: 0.617 for the first, 1 for the second.

First: C7G C19G
Second: C7U A51U
The self-cleavage of the first is lower: 0.0791 for the first, 1.13 for the second.

First: A8G G67U
Second: A8C U12A
The self-cleavage of the first is higher: 0.978 for the first, 0 for the second.

Going from C7U U60G to C7U U60C, the self-cleavage rises from 0.831 to 1.26.

Going from A8G C36U to C7U G34C, the self-cleavage falls from 0.727 to 0.193.

First: A8G U60G
Second: C7U C49U
The self-cleavage of the first is higher: 1.11 for the first, 0.727 for the second.

Going from A8G C62U to A8G C62G, the self-cleavage falls from 0.95 to 0.489.

First: C7A G59A
Second: C7A G59U
The self-cleavage of the first is higher: 0.753 for the first, 0.646 for the second.

Going from A8C C62U to A8G G73U, the self-cleavage falls from 0.918 to 0.148.

First: A8U G25C
Second: A8G G10A
The self-cleavage of the first is lower: 0.277 for the first, 0.369 for the second.

Going from A8G A83U to C7U C41U, the self-cleavage rises from 0.246 to 0.802.

Compared with C7A G50U, A8C A71G is higher in self-cleavage: 0.475 for the first, 0.772 for the second.

Compared with A8G G39C, A8G C66U is higher in self-cleavage: 0.142 for the first, 1.14 for the second.

Compared with A8C A78C, A8U C33G is lower in self-cleavage: 0.302 for the first, 0.0536 for the second.

First: A8U C33U
Second: C7A U46A
The self-cleavage of the first is higher: 0.453 for the first, 0.287 for the second.

First: C7A U46G
Second: C7G U27C
The self-cleavage of the first is lower: 0.0755 for the first, 0.151 for the second.

Going from A8C C13G to C7G G68A, the self-cleavage falls from 0.0692 to 0.0594.

Going from C7U C61U to A8G G28C, the self-cleavage falls from 0.831 to 0.

First: A8G G28A
Second: A8U C63G
The self-cleavage of the first is lower: 0.166 for the first, 0.646 for the second.

Going from A8U C63U to C7U G55C, the self-cleavage falls from 0.862 to 0.736.

Going from C7U G55A to A8G C32A, the self-cleavage falls from 0.724 to 0.0852.

Going from A8G U72G to C7G C13G, the self-cleavage falls from 0.536 to 0.0554.

Going from C7G C13U to A8U U23C, the self-cleavage rises from 0.158 to 0.532.

Going from C7G U12A to C7U U79A, the self-cleavage rises from 0 to 0.675.

Going from A8C U72G to A8C U72A, the self-cleavage rises from 0.332 to 0.375.

First: A8C A43U
Second: C7A G74U
The self-cleavage of the first is higher: 0.289 for the first, 0.201 for the second.

First: C7A G74A
Second: A8U A16G
The self-cleavage of the first is lower: 0.026 for the first, 0.684 for the second.

Compared with A8U A51U, A8U A51G is lower in self-cleavage: 0.787 for the first, 0.767 for the second.

Compared with A8G G59C, A8G G59U is higher in self-cleavage: 0.858 for the first, 0.914 for the second.

First: A8C C18A
Second: A8G G80C
The self-cleavage of the first is lower: 0.0415 for the first, 0.172 for the second.

Compared with A8U C62A, A8U C62U is higher in self-cleavage: 0.956 for the first, 0.989 for the second.

Compared with A8U C62G, C7U G59U is higher in self-cleavage: 0.287 for the first, 0.812 for the second.

Going from C7A G76A to C7U C36G, the self-cleavage falls from 0.868 to 0.104.

Compared with C7U C36A, A8G G40A is higher in self-cleavage: 0.0405 for the first, 1.08 for the second.

Compared with A8U G81U, A8U U69C is higher in self-cleavage: 0.175 for the first, 0.646 for the second.

Compared with A8U U69A, C7U C58U is higher in self-cleavage: 0.962 for the first, 1.19 for the second.

Compared with A8C C36U, A8G C64U is higher in self-cleavage: 0.712 for the first, 1.07 for the second.

First: A8G C64G
Second: A8C U47C
The self-cleavage of the first is higher: 0.7 for the first, 0.665 for the second.

First: C7G G31A
Second: C7G G31C
The self-cleavage of the first is lower: 0.441 for the first, 0.95 for the second.

First: C7A U12G
Second: C7G A70G
The self-cleavage of the first is lower: 0.237 for the first, 0.256 for the second.

Going from C7G A70C to A8G G11U, the self-cleavage falls from 0.237 to 0.0739.

Compared with A8G G11C, C7U A45G is higher in self-cleavage: 0.0437 for the first, 0.72 for the second.

First: C7G A42U
Second: C7G A42G
The self-cleavage of the first is lower: 0.0665 for the first, 0.111 for the second.

Work on C7G C63U yielded a self-cleavage of 0.674.
